In data set [1] the target is T1, HsdC (controller protein of type I RM-system) (Mycoplasma gallisepticum S6, UniProt A0A0F6CKR7 1-64). The data set is described as follows: EMSA titration; printed as binding constant; 20 mM Tris-HCl pH 7.5, 100 mM KCl, 6% glycerol, 15 min at 37 °C; 20 pmol protein with 10 pmol dsDNA; 6% acrylamide gel, TB buffer pH 8.3, 10 °C, EtBr stain. Particulars: protein: recombinant; tags: C-terminal His-tag (pETm); chain copies: 2. In general terms: In EMSA bound probe runs differently from free probe, usually more slowly.

For data set [2], the target named is T2, MraZ (UniProt Q7NB78 1-142).
T2 sequence: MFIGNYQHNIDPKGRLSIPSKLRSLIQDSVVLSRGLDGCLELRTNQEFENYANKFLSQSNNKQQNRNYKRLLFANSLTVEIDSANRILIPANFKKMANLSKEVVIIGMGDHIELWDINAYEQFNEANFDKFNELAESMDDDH
The data set is described as follows: EMSA; strength comparable to own site; 20 mM Tris-HCl pH 7.5, 100 mM KCl, 6% glycerol, 15 min at 37 °C; 20 pmol protein with 10 pmol dsDNA; 6% acrylamide gel, TB buffer pH 8.3, 10 °C, EtBr stain. As to conditions: protein: recombinant; chain copies: 8.

In data set [3] the target is T1, HsdC (controller protein of type I …). The data set is described as follows: EMSA; similar or slightly weaker than PhsdC; 20 mM Tris-HCl pH 7.5, 100 mM KCl, 6% glycerol, 15 min at 37 °C; 20 pmol protein with 10 pmol dsDNA; 6% acrylamide gel, TB buffer pH 8.3, 10 °C, EtBr stain. Particulars: protein: recombinant; tags: C-terminal His-tag (pETm); chain copies: 2.
Data set [4] deals with T2, MraZ. The data set is described as follows: EMSA; control; 20 mM Tris-HCl pH 7.5, 100 mM KCl, 6% glycerol, 15 min at 37 °C; 20 pmol protein with 10 pmol dsDNA; 6% acrylamide gel, TB buffer pH 8.3, 10 °C, EtBr stain. Particulars: protein: recombinant; chain copies: 8.

Experimental findings from paper PMC5282649, “Binding site of restriction-modification system controller protein in Mollicutes” are described below.

B1: PhsdC-WT (dsDNA)
DNA 1: TTATCGGCTTTGTGTTAAAATAGTGTTAACGATTTTGAAG
DNA 2: CTTCAAAATCGTTAACACTATTTTAACACAAAGCCGATAA
Regarding B1, the Kd (as a rule, the free concentration of one partner at which half of the binding sites on the other are occupied at equilibrium, for simple one-to-one binding) in data set [1] is approximately 5 nM. In addition, the binding result with MraZ [2] is on record as “binds”.

B2: PclpB (dsDNA)
DNA 1: TAATAGCCTAAGTGCTAATTTTTTGTTATAATAAATCTAT
DNA 2: ATAGATTTATTATAACAAAAAATTAGCACTTAGGCTATTA
Consider B2, for which the binding result in data set [3] is on record as “binds”.

B3: PmraZ (dsDNA)
DNA 1: AATTCAAAAGTGTTAAAAAGTGTGAGAAAGTGGGAAAAAT
DNA 2: ATTTTTCCCACTTTCTCACACTTTTTAACACTTTTGAATT
In the case of B3, the binding result with MraZ [4] is reported as “binds”.

B4: PtrnM (dsDNA)
DNA 1: ATTGTTATTATATGATAATAATGTGTAACACATCGCGGGA
DNA 2: TCCCGCGATGTGTTACACATTATTATCATATAATAACAAT
Regarding B4, in data set [3], the binding result is listed as “binds”.
